Where two headings read alike, the source gives them in different places.
Experiments:
[1] = Fibril formation yield (centrifugation to sediment amyloid fibrils); assay type: physicochemical, bovine
Experimental: The fibril yields for the reactions shown in Fig. 1 were estimated by centrifugation experiments to sediment amyloid fibrils formed at a starting concentration of 58 μM insulin. […] We also used centrifugation to sediment insoluble insulin in 1 mg/ml solutions to investigate the solubility across a range of buffers with different pH values (Fig. 1d).

[2] = centrifuged 13,400 rpm 15 min, absorption 280 nm
Experimental: The solubility of insulin as function of pH was estimated by preparing insulin solutions with varying pH at a concentration of 1 mg/ml. The solutions were centrifuged at 13,400 rpm in an Eppendorf Minispin tabletop centrifuge (Eppendorf, Hamburg, Germany) for 15 min to pellet non-dissolved insulin. The solubility was estimated by measuring the insulin concentration in the supernatant by absorption (see above). The same strategy was used to determine fibril formation yields at different pH values, using pre-formed fibrils as starting material.

[3] = AFM imaging of the end point of the fibrillation reaction; assay type: physicochemical, bovine; conditions: aggregated in ammonium acetate pH 4.0 in presence of 30% (vol/vol) EtOH; on mica
Experimental: For atomic force microscopy, fibrillar insulin was deposited on freshly cleaved mica and left to settle for 5 min, after which the mica plates were rinsed with milli-Q water and dried under a gentle stream of nitrogen. AFM images were recorded on an NTEGRA Prima setup (NT-MDT, Moscow, Russian Federation) equipped with a gold-coated single crystal silicon cantilever (NSG-01, spring constant ~ 5.1 N/m, resonance frequency of ~ 150 kHz). The images were processed in the Gwyddion software package (Nečas and Klapetek [2012]) using planar subtraction, polynomial background subtraction and correction for linear aberrations. For fluorescence microscopy, 150 µl of insulin solution was placed on positively charged glass (Thermo Scientific, Waltham, MA, USA) and sealed with a 18 × 18 mm coverslip. A Zeiss AxioObserver.Z1 inverted fluorescence microscope (Carl Zeiss AG, Oberkochen, Germany) with a 100 × oil immersion objective (NA = 1.46) was used in combination with a Photometrics Evolve EMCCD camera (Photometrics, Tuscon, AZ, USA), 100 ms exposure time, to obtain the images of the samples.
This is probably due to ThT’s fluorescence being sensitive both to ThT binding affinity and to the quantum yield of each bound dye molecule (Lindberg et al.[2015], [2017]). […]

[4] = ref Wintersteiner and Abramson [1933]; cited from earlier work
[5] = Thioflavin-T kinetic assay of insulin amyloid formation; assay type: physicochemical, bovine; conditions: 64 μM insulin, 60 °C, quiescent; for half-time of amyloid formation: ThT 7.2 μM
Experimental: (§1) Aggregation kinetics was monitored by ThT fluorescence in a Fluostar Omega or Fluostar Optima fluorescence plate reader (BMG Labtech, Ortenberg, Germany) at 60 °C without shaking. Samples were deposited in 100 μl triplicate in black half-area 96-well microtiter plates with transparent bottoms (Corning #3881), and the plates were sealed with plastic film (Bio-Rad Laboratories, Hercules, CA, U.S.) to avoid sample evaporation. ThT fluorescence emission was detected using bottom optics, a 440 ± 10 nm band pass excitation filter, and a 485 ± 12 nm band pass emission filter. The ThT concentration was 7.2 μM in all experiments.
We set up thioflavin-T kinetic assays to monitor the aggregation of bovine insulin in microtitre plates at 60 °C and under quiescent conditions, initially at pH 2.2 to establish a reproducible method, then extending to pH 7.0 to reflect native conditions. The resulting kinetic curves (presented as normalized ThT fluorescence) are presented in Fig. 1a, b; each condition was analysed in triplicate and all curves are shown. The aggregation rate of bovine insulin increases with increase in monomer concentration at pH 2.2 (Fig. 1a), which is intuitively expected and also consistent with many previous studies (see for example Brange and Langkjoer [1993]; Nielsen et al. [2001]). […] The scaling component, i.e. the slope of the fitted straight line to the half-time data, for insulin aggregation kinetics at pH 2.2 is − 1.02, which is consistent with a nucleation-dependent aggregation mechanism (Meisl et al. [2016]). […] This is, from an amyloid formation point of view, an anomalous behaviour that can be explained by that insulin, in addition to existing as a monomer, populates higher-order oligomeric states that are resilient to amyloid formation; or interfere with fibril elongation (Ziaunys et al. [2018]). These higher-order states can be significant, or even predominant, at pH 7.0 despite that no stabilizing zinc was added (Ziaunys et al. [2018]; Waugh et al. [1953]; Goldman and Carpenter, [1974]).

bovine insulin = molecular target: T1, bovine insulin (Bos taurus, UniProt P01317); test: Effect of short-chain alcohols on insulin fibrillation kinetics (ThT) at pH 4.0; conditions: ammonium acetate buffer pH 4.0, ThT, 60 °C; for retardation of insulin fibril formation (half-time) at the most effective alcohol:buffer mixing ratio: quiescent, triplicate, alcohol range 0-50% v/v; for alcohol concentration of maximal retarding effect: volume fraction
T1 construct: 51 amino acid residues, distributed over two polypeptide chains (A and B) that are interconnected by disulphide bridges; purchased Sigma-Aldrich I5500
Experimental: as §1
To mimic conditions relevant to industrial purification of insulin, we investigated the effect of three short-chain alcohols (methanol, ethanol and isopropanol) on insulin aggregation in ammonium acetate buffer. We monitored ThT kinetics as function of increasing concentration (range: 0–50% v/v) of each alcohol (Fig. 5a–c). […] Methanol is apparently a weaker modulator (it retards fibril formation by ~ 2 times); higher concentrations (40%) are also needed to reach maximal effect.

T1 sequence (P01317 25-54 limits assumed): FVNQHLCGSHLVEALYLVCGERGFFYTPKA
T1 sequence (P01317 85-105 limits assumed): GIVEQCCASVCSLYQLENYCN

Molecule: Bovine insulin
- fibril yield ([1]; pH 2.2, starting concentration 58 μM insulin, absorption of supernatant): 91 ± 8%
- fibril yield ([1]; pH 4.0, absorption of supernatant): > 99.5%
- fibril yield ([1]; pH 7.0, starting concentration 58 μM insulin, absorption of supernatant, n = 3): 90 ± 5%
- insulin solubility ([2]; across most of the assayed pH range except pH 5.0-6.0, 1 mg/ml (172 μM), pre-dissolved in 100 mM HCl): high
- insulin solubility ([2]; pH 4.0, 1 mg/ml): solubility remains high
- insulin solubility ([2]; pH 5.0-6.0, close to pI, 1 mg/ml): low solubility
- size of oligomeric particles at end point of fibrillation (AFM) [3]: 2–3 nm
- isoelectric point (pI) [4]: 5.3
- half-time of amyloid formation ([5]; ammonium acetate buffer (200 mM) pH 4.0, printed 'ammonium phosphate', triplicate): 7.7 ± 0.8 h
- half-time of amyloid formation ([5]; citrate-phosphate buffer pH 4.0, triplicate): 6.5 ± 0.1 h
- slowing of amyloid formation kinetics as measured by half-time of fibril formation ([5]; pH 4.0 compared with pH 3.0 or pH 7.0, citrate-phosphate buffer, ThT, triplicate): ~ 50%
- amyloid formation ([5]; pH 5.0-6.0, citrate-phosphate buffer, ThT, no reliable half-times within assayed time range): strongly inhibited

Molecule: CCO [Ethanol, ethanol]
- retardation of insulin fibril formation (half-time) at the most effective alcohol:buffer mixing ratio (bovine insulin): three to four
- alcohol concentration of maximal retarding effect (bovine insulin): 30–35%

Molecule: CC(C)O [isopropanol]
- retardation of insulin fibril formation (half-time) at the most effective alcohol:buffer mixing ratio (bovine insulin): three to four
- alcohol concentration of maximal retarding effect (bovine insulin): 30–35%

Molecule: CO [Methanol, methanol]
- retardation of insulin fibril formation (half-time) at the most effective alcohol:buffer mixing ratio (bovine insulin): ~ 2 times
- alcohol concentration of maximal retarding effect (bovine insulin): 40%

From paper PMC7069927, “Amyloid formation of bovine insulin is retarded in moderately acidic pH and by addition of short-chain alcohols” (European Biophysics Journal, 2020)
